The values below are quoted from earlier work in publication PMC9437294.

This data set deals with 5-HT1A receptor C-terminus (UniProt P19327).

pKd: −log10 of the molar value.

Take “Yif1B N-terminal region (from UniProt Q6PEC3)”: the pKd (as a rule, the Kd on a negative log10 scale, so that one unit is a factor of ten) is 7.43.
